Data taken from IntAct's records for PubMed 24446487.

Molecular target: ospg_shifl ospG (UniProt Q99PZ6)
Sequence (Q99PZ6 whole entry): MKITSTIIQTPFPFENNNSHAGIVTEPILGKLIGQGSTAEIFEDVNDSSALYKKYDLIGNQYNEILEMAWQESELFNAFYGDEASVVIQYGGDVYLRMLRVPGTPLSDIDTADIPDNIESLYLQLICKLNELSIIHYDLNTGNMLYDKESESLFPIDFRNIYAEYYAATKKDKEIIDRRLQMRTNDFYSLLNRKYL

Chain of Ubiquitin-conjugating enzyme E2 D3 (Homo sapiens), P61077 F62A (P61077 whole entry F62A): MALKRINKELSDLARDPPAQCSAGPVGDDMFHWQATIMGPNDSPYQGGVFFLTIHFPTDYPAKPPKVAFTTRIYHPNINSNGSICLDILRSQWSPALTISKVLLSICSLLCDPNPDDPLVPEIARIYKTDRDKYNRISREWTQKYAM

Ubiquitin-conjugating enzyme E2 D3 (Homo sapiens), P61077 F62A
effect of a mutation on the interaction: disrupting interaction
